Experimental findings from the nanobody polyreactivity screen of Harvey et al. (2022) are described below.

The data set can be described thus: yeast display, Sf9 membrane polyspecificity reagent, FACS + sequencing; frameworks hold sequencing errors. The procedure, abridged: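 A nanobody's polyreactivity label depends on the gate it was sorted from. Yeast display cells were stained with 10% biotinylated, detergent-solubilized Sf9 membrane reagent for 1 hour at 4 °C, enriched on streptavidin microbeads and sorted by FACS. The low and high (top ~1%) gates were set on anti-HA fluorescence for expression and streptavidin fluorescence for reagent binding.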
For the sequence “QVQLVESGGGLVQAGGSLRLSCAASGRTFVDSVMGWYRQAPGKERELVAAISRSGSTYYADSVKGRFTISRDNAKNTVYLQMNSLKPEDTAVYYCAADWSFNRSSGQYGFYYWGQGTQVTVSS”, the “polyreactivity (PSR sort gate)” value was “low polyreactivity”. On to “QVQLVESGGGLVQAGGSLRLSCAASGRTFVDYAMGWYRQAPGKERELVAAISSSGASTYYADSVKGRFTISRDNAKNTVYLQMNSLKPEDTAVYYCAARRHRTYGYWGQGTQVTVSS”, for which the “polyreactivity (PSR sort gate)” value is reported as “high polyreactivity”. With “QVQLVESGGGLVQAGGSLRLSCAASGRTFVEYAMGWYRQAPGKERELVAAITYSGDDTYYADSVKGRFTISRDNAKNTVYLQMNSLKPEDTAVYYCAKKRSKPISFDYWGQGTQVTVSS”, the “polyreactivity (PSR sort gate)” value is recorded as “high polyreactivity”.

Consider “QVQLVESGGGLVQAGGSLRLSCAASGRTFVFNAMGWYRQAPGKERELVAAISRSGGSTYYADSVKGRFTISRDNAKNTVYLQMNSLKPEDTAVYYCAADKYYLFALYEYGYWGQGTQVTVSS”, for which the “polyreactivity (PSR sort gate)” value is “high polyreactivity”. Regarding “QVQLVESGGGLVQAGGSLRLSCAASGRTFVFNGMGWYRPAPGKERELVAAINWDGGDTYYADSVKGRFTISRDNAKNTVYLQMNSLKPEDTAVYYCAAEGIFRYYTQATMEYWGQGTQVTVSS”, the “polyreactivity (PSR sort gate)” value is recorded as “low polyreactivity”.

Regarding “QVQLVESGGGLVQAGGSLRLSCAASGRTFVGYAMGGYRQAPGQERELVANMTTSGGNTYYADSVKGRFTISRDNAKNTDYLQMNSLKPEDTAVYYCAARVYWVTRAVSTSYYYWGQGTQGTVSS”, the “polyreactivity (PSR sort gate)” value was “high polyreactivity”.

Regarding “QVQLVESGGGLVQAGGSLRLSCAASGRTFVGYAMGWYRQAPGKERELVAAITYSGVSTYYADSVKGRFTISRDNAKNTVYLQMNSLKPEDTAVYYCAADYISVYGYEYYYWGQGTQVTVSS”, the “polyreactivity (PSR sort gate)” value is “high polyreactivity”. In the case of “QVQLVESGGGLVQAGGSLRLSCAASGRTFVGYAMGWYRQAPGKERELVASITASGGRTYYADSVKGRFTISRDNAKNTVYLQMNSLKPEDTAVYYCAAYIHWSEDYWGQGTQVTVSS”, the “polyreactivity (PSR sort gate)” value is given as “low polyreactivity”. As to “QVQLVESGGGLVQAGGSLRLSCAASGRTFVGYSMGWYRQAPGKEREFVATITSSGRTNYADSVKGRFTISRDNAKNTVYLQMNSLKPEDTAVYYCNAVYGRFVDLRYDYWGHGTQVTVSS”, the “polyreactivity (PSR sort gate)” value is listed as “high polyreactivity”. Turning to “QVQLVESGGGLVQAGGSLRLSCAASGRTFVIYAMGWYRQAPGKEREFVAAISRSGGSTYYADSVKGRFTISRDNAKNTVYLQMNSLKPEDTAVYYCNTRTPYWFKSDYWGQGTQVTVSS”, the “polyreactivity (PSR sort gate)” value is “low polyreactivity”.

For the sequence “QVQLVESGGGLVQAGGSLRLSCAASGRTFVIYARGWYRQAPGKEWALVAAINWRGGSTYYADSVKGRFTISRDNAKNTVYLQMNSLKPEDTAVYYCAADTGWWWLYDYWGQGTQVTVSS”, the “polyreactivity (PSR sort gate)” value is reported as “high polyreactivity”. For “QVQLVESGGGLVQAGGSLRLSCAASGRTFVKNAMGWYRQAPGKERELVAAISSSGGSTYYADSVKGRFTISRDNAKNTVYLQMNSLKPEDTAVYYCNRYSRLYLTDDDYWGQGTQVTVSS”, the “polyreactivity (PSR sort gate)” value is given as “high polyreactivity”. “QVQLVESGGGLVQAGGSLRLSCAASGRTFVKNNMGWYRQSPGKERELVAAISSSGGSTYYADSVKGRFTISRDNAKNSVYLHMNSLNPEDTAVYFCAVSYPYKHAGGWYAYNYWGQGTQVTVSS”: the “polyreactivity (PSR sort gate)” value is listed as “high polyreactivity”. As to “QVQLVESGGGLVQAGGSLRLSCAASGRTFVKYAMGWYRQAPGKERELVAAISWSGGSTYYADSVKGRFTISRDNAKNTVYLQMNSLKPEDTAVYYCAAPSSRGQGRNFDYWGQGTQVTVSS”, the “polyreactivity (PSR sort gate)” value is listed as “high polyreactivity”.

As for “QVQLVESGGGLVQAGGSLRLSCAASGRTFVNYAMGWYRQAPGKEREFVAAITNGGRTNYADSVKGRFTISRDNAKNTVYLQMNSLKPEDTAVYYCAARYRFGGIRRYNYWGQGTQVTVSS”, the “polyreactivity (PSR sort gate)” value is listed as “high polyreactivity”. Next, “QVQLVESGGGLVQAGGSLRLSCAASGRTFVNYAMGWYRQAPGKERELVAAITSDGSTSYADSVKGRFTISRDNAKNTVYLQMNSLKPEDTAVYFCAKDFFEHSPVSHTYSSSKYDYWGQGTQVTVSS”: “low polyreactivity”; “QVQLVESGGGLVQAGGSLRLSCAASGRTFVNYTMGWDRQAPGKERELVAAIRYRDGSTYYADSVKGRFTISRDNAKNTVYLQMNSLKPEDTAVYYCNTRITQVGDYIYDYWGQGTQVTVSS”: “low polyreactivity”; “QVQLVESGGGLVQAGGSLRLSCAASGRTFVPNTMGWYRQAPGKERELVAAIRWSVGSTYYADSVKGRFTISRDNAKNTVYLQMNSLKPEDTAVYYCAAYYSRSYLRYGMDYWGQGTQVTVSS”: “high polyreactivity”. On to “QVQLVESGGGLVQAGGSLRLSCAASGRTFVPYAMGWYRQAPGKEREFVAAISSRVGSTYYADSVKGRFTISRDNAKNTVYLQRNSLKPEDTAVYYCNAPFKPAGFYSAWKYDYWGQGTQVTVSS”, for which the “polyreactivity (PSR sort gate)” value is recorded as “low polyreactivity”. Regarding “QVQLVESGGGLVQAGGSLRLSCAASGRTFVQYVMGWYRQAPGKERELVARISSGGSTFYADSVKGRFTISRDNAKNSVYLQLNSLKPEDTAVYYCAAQWTRYRRRPMDYWGQGTQVTVSS”, the “polyreactivity (PSR sort gate)” value was “high polyreactivity”. For “QVQLVESGGGLVQAGGSLRLSCAASGRTFVRNAMGWYRQAPGKERELVAAISSSGGSTYYADSVKGRFTISRDNAKNTVYLQMNSLKPEDTAVYYCAAFRIGREYWGQGTQVTVSS”, the “polyreactivity (PSR sort gate)” value is reported as “high polyreactivity”.

As for “QVQLVESGGGLVQAGGSLRLSCAASGRTFVRNTMGWYRQAPGKEREFVAAISRSGGNTNYADSVKGRFTISRDNAKNTVYLQMNSLKPEDTAVYYCATRAGYQVYPNKMNYWGQGTQVTVSS”, the “polyreactivity (PSR sort gate)” value is given as “high polyreactivity”. With “QVQLVESGGGLVQAGGSLRLSCAASGRTFVSYAMGWYRPAPGKERELVAGISWSGDSTYYADSVKGRFTISRDNAKNTVYLEMNSLKPEDSAVYYCAAYGPFIYGGHHYNYWGQGTQVTVSS”, the “polyreactivity (PSR sort gate)” value was “low polyreactivity”. The same measure for “QVQLVESGGGLVQAGGSLRLSCAASGRTFVTNAMGWYRQAPGKERELVAAISKSGGRTYYADSVKGRFTISRDNAKNTVYLQMNRLKPEDTAVYYCAADKRYLSYDYWGQGTQVTVSS”: “high polyreactivity”.

For the sequence “QVQLVESGGGLVQAGGSLRLSCAASGRTFVTNAMGWYRQAPGKERELVAAISSGDDSTYYADSVKGRFTISRDNAKNTVYLQMNSLKPEDTAVYYCAAEGYYVDYYFYFHGFDYWGQGTQVTVSS”, the “polyreactivity (PSR sort gate)” value was “high polyreactivity”.

In the case of “QVQLVESGGGLVQAGGSLRLSCAASGRTFVTNAMGWYRQAPGKERELVAAITQRGGRTYYADSVKGRFTISRDNAKNTVYLQMNSLKPEDTAVYYCAASYYGWSARYDTLGIYEYWGQGTQVTVSS”, the “polyreactivity (PSR sort gate)” value is “high polyreactivity”. The same measure for “QVQLVESGGGLVQAGGSLRLSCAASGRTFVTYAMGWYRQAPGKEREFVAAISRNGGSTYYADSVKGRFTISRDNAKNTVYLQMNSLKPEDTAVYYCAKGRPWYRGDYWGQGTQVTVSS”: “low polyreactivity”; for “QVQLVESGGGLVQAGGSLRLSCAASGRTFVVNAMGWYRQAPGKERELVATIRWSGGRTYYADSVKGRFTISRDNAKNTVYLQMNSLKPEDTAVYYCAADFKGLFSSELDYWGQGTQVTVSS”: “low polyreactivity”. “QVQLVESGGGLVQAGGSLRLSCAASGRTFVVYAMGWYRQAPGKERELVAAINWSGTSTYYADSVKGRFTISRDNAKNTVYLQMNSLKPEDTAVYYCAAVAGLGTYRRYGYWGQGTQVTVSS”: the “polyreactivity (PSR sort gate)” value is “high polyreactivity”. Regarding “QVQLVESGGGLVQAGGSLRLSCAASGRTFVVYAMGWYRQAPGKERELVAVIRVIGGSTNYADSVKGRFTISRDNAKNTVYLQMNSLKPEDTAVYYCAADGVVVVAADMYYWGQGTQVTVSS”, the “polyreactivity (PSR sort gate)” value was “low polyreactivity”. Next, “QVQLVESGGGLVQAGGSLRLSCAASGRTFVWNAMGWYRQAPGKERELVAAIDWSGGSTYYADSVKGRFTISRDNAKNTVYLQMNSLKPEDTAGYYCAKEYWYRALWYNYWGQGTQVTVSS”: “high polyreactivity”; “QVQLVESGGGLVQAGGSLRLSCAASGRTFVWNAMGWYRQAPGKERELVAAISSSGTSTYYADSVKGRFTISRDNAKNTVYLQMNSLKPEDTAVYYCAKDLLYQPTIRDYWGQGTQVTVSS”: “low polyreactivity”; “QVQLVESGGGLVQAGGSLRLSCAASGRTFVYNAMGWYRQAPGIERELVAAITTSGASTYYADSVKGRFTISRDNAKNTVYLQMNSLKPEDTAVYDCNAYSRYSYGRTYGYWGQGTQVTVSS”: “high polyreactivity”. The same measure for “QVQLVESGGGLVQAGGSLRLSCAASGRTFVYNAMGWYRQAPGKERELVATITFSGGSTYYADSVKGRFTISRDNAKNTVYLQMNSLKPEDTAVYYCNTQGVHHYYHAPQVRGYDYWGQGTQVTVSS”: “low polyreactivity”; for “QVQLVESGGGLVQAGGSLRLSCAASGRTFVYNVMGWYRQAPGKERELVAAISSGGSTNYADSVKGRFTISRDNGKNTVYVQMNSLKPEDTAVYYCNAGTLYYRYRWGHYYDSWGQGTQVTVSS”: “low polyreactivity”. For “QVQLVESGGGLVQAGGSLRLSCAASGRTFVYTMGWYRQAPGKERELVAAIRYSGGRTYYADSVKGRFTISRDNAKNTVYLQMNSLKPEDTAVYYCAARNYATGVRYDYWGQGTQVTVSS”, the “polyreactivity (PSR sort gate)” value is recorded as “high polyreactivity”. “QVQLVESGGGLVQAGGSLRLSCAASGRTFVYYAMGWYRQAPGKEREFVATISDGGGTYYADSVKGRFTISRDNAKNTVYLQMNSMNPEDSAVYYCNARGTPWRYGGDYWGQGTQVTVSS”: the “polyreactivity (PSR sort gate)” value is given as “low polyreactivity”.

For the sequence “QVQLVESGGGLVQAGGSLRLSCAASGRTFVYYAMGWYRQAPGKEREFVATITSSGGSTYYADSVKGRFTISRDNAKNTVYLQMNSLKPEDTAVYYCSASPYIRYSKVSKYYYWGQGTQVTVSS”, the “polyreactivity (PSR sort gate)” value was “high polyreactivity”. Take “QVQLVESGGGLVQAGGSLRLSCAASGRTFWANAMGWYRQAPGKERELVAAINYSGGRTYYADSVKGRFTISRDNAKNTVYLQMNSLKPEDTAVYYCNVVHGGAISDYWGQGTQVTVSS”: the “polyreactivity (PSR sort gate)” value is reported as “high polyreactivity”. Regarding “QVQLVESGGGLVQAGGSLRLSCAASGRTFWAYAMGWYRQAPGKERELVAAITASGTRTYYADSVKGRFTISRDNAKNTVYLQMNSLKPEDTAVYYCAAERIWWAHAYPTYVANDYWGQGTQVTVSS”, the “polyreactivity (PSR sort gate)” value is recorded as “high polyreactivity”.
